Measurements from patent US8927280B2, “Compositions and methods for promoting the generation of definitive endoderm” (President and Fellows of Harvard College, priority 2009, dated 2015).

Assays:
[1] = tested on: endoderm derived from Pdx1-GFP mouse ES cells; test: Differentiation of induced endoderm into Pdx1+ pancreatic progenitors; type: cell-based
Experimental: (§1) Mouse ES cells were routinely cultured on irradiated CF-1 MEF feeder cells in DMEM (Gibco) media supplemented with 15% Fetal Bovine Serum (HyClone FBS, Invitrogen), 2 mM L-glutamine (L-Glu, Gibco), 1.1 mM 2-mercaptoethanol (Gibco), 1 mM nonessential amino acids (Gibco), 1× penicillin/streptomycin (P/S, Gibco) and 5×10^5 units LIF (Chemicon). Cells were passaged at the ratio of 1:6-1:12 every 2-3 days using 0.25% trypsin. To generate the starting population, mouse ES cells was cultured on MEF feeder cells until they reached 80-90% confluence. Prior to differentiation, ES cells were passaged onto gelatin coated plates for 30 min to remove MEFs. MEF depleted ES cells were seeded at 2500 cells per cm^2 on gelatinized plates. After overnight culture, cells were exposed to 25 ng/ml Wnt3a (R&D Systems)+50 ng/ml recombinant Activin A (R&D Systems) or 500 ng/ml Nodal (R&D Systems) in DMEM (Gibco) supplemented with 1×L-Glu and 0.2% FBS (Gibco) for 1 day, then Activin A or Nodal in the same media and cultured for 4-6 days to induce endoderm differentiation. For the chemical inductions, compounds IDE1 and IDE2 (provided by Stuart L. Schreiber) were added at 5 μM concentration in the differentiation media. For pancreatic progenitors induction, the cells were transferred to 50 ng/ml FGF10 (R&D Systems), 0.75 μM KAAD-cyclopamine (Calbiochem) and 2 μM RA (Sigma) or Indolactam V 330 nM (Axxora) in DMEM supplemented with 1×L-Glu, 1×PS, 1×B27 (Invitrogen) for 4 days. SHB431542 was purchased from Sigma. All stock compounds were made with either DMSO or PBS
(§2) Cells were fixed in 4% paraformaldehyde (Sigma) in PBS for 20 min at 4° C. followed by a wash with PBS. Cells were blocked with 10% donkey serum (Jackson Immunoresearch) in PBS/0.1% Triton X and incubated with primary antibodies overnight at 4° C. Secondary antibodies were incubated for 1 h at room temperature. The following antibodies and dilutions were used: goat anti-SOX17, (1:500 R&D systems); rabbit anti-PDX1 (1:200, Chemicon), rabbit anti-FoxA2 (1:500; Upstate), rabbit anti-Dab2 (1:200, Santa Cruz), rabbit anti-SPARC (1:200, Santa Cruz,), mouse anti-AFP (1:100, Sigma), anti-Gata6 (1:50, Santa Cruz Biotech), goat anti-HNF6 (1:200, Santa Cruz Biotech), rabbit anti-RFP/DsRed (1:300, MBL), rabbit anti-GFP (1:200, Molecular Probes). Secondary antibodies were: rhodamine Red-X-conjugated donkey anti-goat antibody, 1:200 (JIRL), Alexa-488-conjugated goat anti-mouse and Alexa-594-conjugated goat anti-rabbit antibodies (1:300, Molecular Probes). Nuclei were visualized by Hoechst 33342 (1:1000, Molecular Probes). Images were taken using an Olympus IX70 Microscope. For quantification images were analyzed for the frequency of SOX17+, FoxA2+ or Pdx1+ cells using Metamorph image analysis software (Molecular Devices) and at least 6 images per well were collected. Data were confirmed in four independent experiments.
Pancreatic progenitors appear in the pancreatic bud at E9.5 and are marked by the expression of the transcription factor Pdx1. […] Using Pdx1-GFP knock-in (Micallef et al., 2005) mouse ES cells the inventors induced definitive endoderm using either of the hit compounds and cultured cells in various conditions for additional six days.

mouse ES cells = test: Sox17 endoderm induction in mouse ES cell monolayer cultures; type: cell-based; settings: for percent of total cells Sox17/dsRed double positive: Sox17-dsRed mouse ES cells, day 6, low serum
Experimental: as §1, §2
Endoderm formation was monitored by Sox17 expression by either flow cytometry detection of Sox17/DsRed or immunofluorescence using anti-Sox17 antibodies. Cells labeled by antibody staining were quantified using Metamorph software ad percentage of total cell number (based on Hoechst 33342 nuclei staining). All conditions were tested in either tri- or quadruplicates.

Smad2 = test: Western blot analysis of Smad2 phosphorylation in ES cell lysates; type: cell-based, mouse; settings: for phosphorylation of Smad2 by IDE1 or IDE2 in the presence of the ALK4/5/7 inhibitor: mouse ES cells, co-treatment; for phosphorylation of Smad2 / activation of the TGF-β pathway: ES cell lysates, after 24 hrs or longer
Experimental: Cells were lysed in 1×RIPA lysis buffer in the presence of protease inhibitor mixture (Roche)/1% phosphatase inhibitor mixture (Roche). Proteins were separated by 10% Tris-Glycine SDS/PAGE (Bio-rad) under denaturing conditions and transferred to a nitrocellulose membrane. After blocking with 5% skim milk in PBS/0.1% Triton X, the membrane was incubated with primary antibodies against phospho-Smad2 (1:1000, Cell Signaling) overnight at 4° C. The membrane was then washed, incubated with anti-mouse/rabbit peroxidase-conjugated affinity-purified secondary antibody (1:1000, Cell Signaling) at room temperature for 1 h, and developed by SuperSignal chemiluminescence (Pierce).

[2] = tested on: human ES cells (HUES 4 and 8); test: Sox17 endoderm induction in human ES cells; type: cell-based
Experimental: Human embryonic stem cell lines were cultured essentially as described {Cowan, 2004 #6}. Briefly, HUES4, HUES8 and HUES9 cells are routinely cultured on irradiated CF-1 MEF feeder cells in KnockOut DMEM (Gibco) supplemented with 10% KnockOut Serum Replacement (Gibco), 10% human plasma (Invitrogen), 2 mM L-glutamine (L-Glu, Gibco), 1.1 mM 2-mercaptoethanol (Gibco), 1 mM nonessential amino acids (Gibco), 1× penicillin/streptomycin (PS, Gibco) and 10 ng/ml bFGF (Invitrogen). Cells are split at the ratio of 1:10-1:12 every 4-5 days by using 1 mg/ml collagenase type IV. To induce endoderm formation, HUES cells was cultured on MEF feeder cells till 80-90% confluent, then treated with 100 ng/ml Activin A in advanced RPMI (Gibco) supplemented with 1×L-Glu and 0.2% FBS (Gibco), or with combination of 25 ng/ml Wnt3a (R&D systems)+100 ng/ml Activin A (R&D systems) or were exposed to compounds in the same media. At days 4 and 6 of culture cells were analysed for endodermal marker expression, Sox17.
as §2

CC(C)[C@H]1C(=O)N[C@H](CO)Cc2c[nH]c3cccc(c23)N1C [Indolactam V, (2S,5S)-1,2,4,5,6,8-Hexahydro-5-(hydroxymethyl)-1-methyl-2-(1-methylethyl)-3H-pyrrolo[4,3,2-gh]-1,4-benzodiazonin-3-one]
increase of Pdx1+ cells above control treatment at day 12 ([1]; IDE1 or IDE2 followed by ILV): 10 fold | percent Pdx1-GFP expressing pancreatic progenitors at day 6 ([1]; IDE1 or IDE2 induced mouse endoderm, second step treatment): 51±7.4% | yield of pancreatic progenitors compared to a growth factor based approach ([1]; applied to IDE1 or IDE2 derived endoderm): higher yields of pancreatic progenitors | percent of total cells Pdx1+ at day 12 ([1]; cultures treated initially with IDE1 or IDE2 and followed by ILV): 50% | increase in Pdx1+ cell number compared to known published protocols ([1]; two-step treatment): 4 fold | percent of Pdx1+ cells also expressing other pancreatic progenitor markers, including HNF6 ([1]; two-step treatment): 92±5% | increase in Pdx1+ cell number compared to the control DMSO treated ([1]; two-step treatment, Pdx1 antibody staining): 10 fold | percent of cells positive with Pdx1 antibodies ([1]; two-step treatment: IDE1 and/or IDE2, then Indolactam V): 53±6.4%

NC(=O)c1ccc(-c2nc(-c3ccc4c(c3)OCO4)c(-c3ccccn3)[nH]2)cc1 [SB43125, reference compound]
induction of Sox17 protein under co-treatment of IDE1 or IDE2 with the ALK4/5/7 inhibitor (mouse ES cells; mouse ES cells): 5.6±1.3% | phosphorylation of Smad2 by IDE1 or IDE2 in the presence of the ALK4/5/7 inhibitor (Smad2): strongly attenuated | phosphorylation of Smad2 by IDE1 or IDE2 in the presence of the ALK4/5/7 inhibitor (Smad2; listed as SB431542): significantly attenuated

B1: Activin A: recombinant TGF-β family growth factor, protein inducer of endoderm (protein, UniProt P08476 311-426, looked up)
Inhibin beta A chain: GLECDGKVNICCKKQFFVSFKDIGWNDWIIAPSGYHANYCEGECPSHIAGTSGSSLSFHSTVINHYRMRGHSPFANLKSCCVPTKLRPMSMLYYDDGQNIIKKDIQNMIVEECGCS
percent of total cells Sox17/dsRed double positive (mouse ES cells): 45% | percent of ES cells that form (definitive) endoderm, summary statement (mouse ES cells; mouse ES cells): about 45% | % of Sox17+ cells compared to IDE1 or IDE2 at all tested time points (mouse ES cells; mouse ES cells, 14 days of treatment): significant but lower % of Sox17+ cells | percentage of cells expressing Sox17 at day 2 of treatment (mouse ES cells; mouse ES cells, day 2): 13% | percentage of cells expressing Sox17 at day 4 of treatment (mouse ES cells; mouse ES cells, day 4): 28% | percent of cells expressing Sox17 ([2]; HUES cells, 4 days, IDE1 100 nM, IDE2 200 nM): 64±6.3% | increase of Sox17 expression compared to the vehicle treatment ([2]; human ESC cultures, 6 days): 4 fold | percent of total cells expressing Sox17 after 6 days ([2]; human ESC cultures, 6 days): 55-65% | phosphorylation of Smad2 / activation of the TGF-β pathway (Smad2): high level | percent of cells expressing Pdx1 after FGF10, KAAD-cyclopamine and retinoic acid ([1]; label = inducer of the starting endoderm, mouse ES cells): 12.1±4%

B2: Wnt3a: Wnt growth factor family member (protein, UniProt P56704 19-352, looked up)
Protein Wnt-3a: SYPIWWSLAVGPQYSSLGSQPILCASIPGLVPKQLRFCRNYVEIMPSVAEGIKIGIQECQHQFRGRRWNCTTVHDSLAIFGPVLDKATRESAFVHAIASAGVAFAVTRSCAEGTAAICGCSSRHQGSPGKGWKWGGCSEDIEFGGMVSREFADARENRPDARSAMNRHNNEAGRQAIASHMHLKCKCHGLSGSCEVKTCWWSQPDFRAIGDFLKDKYDSASEMVVEKHRESRGWVETLRPRYTYFKVPTERDLVYYEASPNFCEPNPETGSFGTRDRTCNVSSHGIDGCDLLCCGRGHNARAERRREKCRCVFHWCCYVSCQECTRVYDVHTCK
synergy / combined effect on Sox17 induction (mouse ES cells; mouse ES cells, co-treatment): no significant effect

B3: Nodal: TGF-β family growth factor, protein inducer of endoderm (protein, UniProt Q96S42 238-347, looked up)
Nodal homolog: HHLPDRSQLCRKVKFQVDFNLIGWGSWIIYPKQYNAYRCEGECPNPVGEEFHPTNHAYIQSLLKRYQPHRVPSTCCAPVKTKPLSMLYVDNGRVLLDHHKDMIVEECGCL
percent of total cells Sox17/dsRed double positive (mouse ES cells): 45% | percent of ES cells that form (definitive) endoderm, summary statement (mouse ES cells; mouse ES cells): about 45% | phosphorylation of Smad2 / activation of the TGF-β pathway (Smad2): high level
